The assay has as its target T1, PfSir2A (Plasmodium falciparum Sir2), GST fusion (Plasmodium falciparum, UniProt Q8IE47 1-273).
T1 sequence (looked up): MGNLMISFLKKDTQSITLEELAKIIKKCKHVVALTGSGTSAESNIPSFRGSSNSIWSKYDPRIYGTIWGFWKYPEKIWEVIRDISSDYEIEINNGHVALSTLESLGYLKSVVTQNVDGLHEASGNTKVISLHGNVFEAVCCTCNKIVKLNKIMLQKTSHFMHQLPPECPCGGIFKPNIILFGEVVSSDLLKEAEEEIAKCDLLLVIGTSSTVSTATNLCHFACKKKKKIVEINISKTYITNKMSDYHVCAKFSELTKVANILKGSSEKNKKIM
As to the kind of experiment: pull-down.

B1: PfAlba3 (Plasmodium falciparum Alba 3), His-tag fusion protein (natural protein, UniProt Q8IJX8 1-107, looked up)
chain: MASTEEVSQERSENSIQVSMTKKPTFYARIGKRMFTGNEEKNPFDEVIITGLGNATKIAIGAASIMEKEDIGQIVKVQTAYFSSDRINRRIPKITIVLKKHPDFVAN
For B1, the binding result is reported as “binds”.

The values are drawn from publication PMC3273813 (Nucleic Acids Research, 2011).
